# Legend:
# [1] = target: CrtERD-YFP (geranylgeranyl diphosphate synthase, CrtE-RIDD, fused with yellow fluorescent protein) (UniProt P10644); assay: FRET or BRET; lifetime-based FRET (two-photon FLIM) in living E. coli cells; CFP donor excited at 810 nm, signal collected at 481 nm; strain Car2f against control strain Car1f
# [2] = target: MenDRA2 (MenD-RIAD-RIAD with two sequential RIAD peptide tags) (E. coli); assay: transmission electron microscopy; TEM of the SEC-purified Assemblies A, B and C; two-dimensional single-particle analysis on Assembly B
# [3] = target: MenDRA (MenD-RIAD with one RIAD peptide tag) (E. coli); assay: as above
# [4] = target: MenDRD (MenD-RIDD with one RIDD peptide tag) (E. coli | not stated); assay: as above
# [5] = target: MenDRD (MenD-RIDD with one RIDD peptide tag) (E. coli | not stated); assay: SEC; 1.5 mg of enzyme fused with RIAD mixed with two-fold molar excess of enzyme fused with RIDD in Tris buffer pH 7.8, 1 mM EDTA, 0.02% Tween-20, no incubation; Superdex 200 10/300 GL, 0.4 mL/min, Tris pH 7.8, 50 mM NaCl; masses from a calibration curve
substance,measurement,setting,value
"IdiRA-CFP (isopentenyl diphosphate isomerase, Idi-RIAD, fused with cyan fluorescent protein) (enzyme)",FRET efficiency E,[1],29%
MenDRA2 (MenD-RIAD-RIAD with two sequential RIAD peptide tags) (enzyme),stoichiometry N,[2],4
MenDRA (MenD-RIAD with one RIAD peptide tag) (enzyme),stoichiometry N,[3],4
MenDRD (MenD-RIDD with one RIDD peptide tag) (from UniProt P10644 1-44) (enzyme),stoichiometry N,[4],4
MenHRA (MenH-RIAD with one RIAD peptide tag) (enzyme),stoichiometry N (MenH per 4 MenD (per particle)),[5],2

# Source: publication PMC6751169
